Where “and” joins values, the source holds several entries; their conditions need not be identical. Equal entries are not always repeated. Where two headings read alike, the source gives them in different places.
Assays:
endogenous P2Y2 receptor = assay: Assay of activation of endogenous P2Y2 receptor by ATP in CHO cells stably expressing photoproteins; format: cell-based; details: CHO cells stably expressing the sensor; for EC50: ATP dose-response, read-out: EC50 (half-maximal effective concentration of ATP for P2Y2 activation)
Procedure: Stably prepared CHO cells were loaded with 5 μM coelenterazine in 130 mM NaCl, 5 mM KCl, 1 mM MgCl2, 2 mM CaCl2, 5 mM NaHCO3, 20 mM N-(2-hydroxyethyl) piperazine-N′-ethanesulfonic acid (HEPES), pH 7.4 for 4 h at ambient temperature.
To produce stable CHO cell lines, the cells transfected with GA and Redquorin variant plasmids were seeded on six-well plates and grown in the same medium with addition of Geneticin sulfate (G418) (Gibco, UK) at 1 mg/ml under the same conditions with replacement of the medium by fresh medium every 2 days. After 7-10 days of selection, CHO cells were transferred into a medium without antibiotic. To select clones with the highest bioluminescence activity, one run of limiting dilution was performed. CHO cells after G418 selection were seeded on 96-well plates (approximately 0.5 cells per well) and grown in DMEM/F12 medium supplemented with 10% fetal calf serum at 37° C., 5% CO2 for up to 80-90% confluence. Before the bioluminescence measurements, the plates with monoclones of CHO cells expressing the corresponding photoprotein were duplicated and grown for up to 90-100% confluence. Then, the medium was removed and cells were loaded with coelenterazine, and bioluminescence in each well was measured according to the procedure described earlier. As a result, the CHO cell clones with the highest bioluminescence activity were selected.
Assay of Activation of Endogenous P2Y2 Receptor in CHO Cells
The CHO cell lines stably expressing each photoprotein were used in assay of activation of endogenous P2Y2 receptor by ATP. The day before the measurements, the corresponding cells were seeded on 96-well plates with DMEM/F12 medium supplemented with 10% fetal calf serum and were grown at 37° C. with 5% CO2 for up to 90-100% confluence. Then, the medium was replaced by 100 μl of coelenterazine solution per well (5 μM coelenterazine in 130 mM NaCl, 5 mM KCl, 1 mM MgCl2, 2 mM CaCl2, 5 mM NaHCO3, 20 mM HEPES, pH7.4) and the cells were incubated at 23° C. for 4 h. Emission from photoproteins in the cells was measured using a Mithras LB 940 plate luminometer. The ATP was injected at a given concentration to trigger an intracellular Ca^2+ response in the cells and the measurement started immediately. The bioluminescence was integrated over a time interval of 0.05 s for 30 s.

[1] = Ca2+ sensitivity curves of reconstituted photoproteins (L/Lmax vs free Ca2+); format: biochemical; details: for EC50: redquorin series, CitA, GA, read-out: Calcium sensitivity, EC50; for Relative intensity at pCa 6.5 / Relative intensity at pCa 7.2: relative to Redq
Outline: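 Purified apoaequorin/redquorin mutants reconstituted overnight at 4 °C with 5 μM CLZ-f or native CLZ, then moved to zero-Ca2+ MOPS/KCl/EGTA buffer, pH 7.2. Luminescence in EGTA-buffered free-Ca2+ solutions, then saturating CaCl2 to obtain Lmax; EC50 from variable-slope sigmoidal fit of L/Lmax.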

EC50 (endogenous P2Y2 receptor) [nM] | EC50 ([1]; CLZ-f) [nM] | EC50 ([1]; CLZ-native) [nM] | Molecule | [ATP] DL (detection limit) (endogenous P2Y2 receptor) | Relative intensity at pCa 6.5 ([1]; CLZ-f) | Relative intensity at pCa 7.2 ([1]; CLZ-f) | Relative intensity at pCa 6.5 ([1]; CLZ-f, listed as Redq/QT) | Relative intensity at pCa 6.5 ([1]; CLZ-native) | Relative intensity at pCa 7.2 ([1]; CLZ-native) | Relative intensity at pCa 6.5 ([1]; CLZ-native, listed as Redq/QT)
1700 | 296 ± 13 | 478 ± 39 | Redq/Q159T: aporedquorin (tdTomato-aequorin fusion) mutant Q159T (SEQ ID NO:22) (protein, mutant aequorin) MVSKGEEVIKEFMRFKVRMEGSMNGHEFEIEGEGEGRPYEGTQTAKLKVTKGGPLPFAWDILSPQFMYGSKAYVKHPADIPDYKKLSFPEGFKWERVMNFEDGGLVTVTQDSSLQDGTLIYKVKMRGTNFPPDGPVMQKKTMGWEASTERLYPRDGVLKGEIHQALKLKDGGHYLVEFKTIYMAKKPVQLPGYYYVDTKLDITSHNEDYTIVEQYERSEGRHHLFLGHGTGSTGSGSSGTASSEDNNMAVIKEFMRFKVRMEGSMNGHEFEIEGEGEGRPYEGTQTAKLKVTKGGPLPFAWDILSPQFMYGSKAYVKHPADIPDYKKLSFPEGFKWERVMNFEDGGLVTVTQDSSLQDGTLIYKVKMRGTNFPPDGPVMQKKTMGWEASTERLYPRDGVLKGEIHQALKLKDGGHYLVEFKTIYMAKKPVQLPGYYYVDTKLDITSHNEDYTIVEQYERSEGRHHLFLSGFDNPRWIGRHKHMFNFLDVNHNGKISLDEMVYKASDIVINNLGATPEQAKRHKDAVEAFFGGAGMKYGVETDWPAYIEGWKKLATDELEKYAKNEPTLIRIWGDALFDIVDKDQNGAITLDEWKAYTKAAGIIQSSEDCEETFRVCDIDESGTLDVDEMTRQHLGFWYTMDPACEKLYGGAVP | 398 nM and 398 ± 17 nM | 11.0 | 2.8 | 11 | 13.0 | 7.1 | 13
2300 ± 200 | 290 ± 18 | 680 ± 33 | Redq/Q159D: aporedquorin (tdTomato-aequorin fusion) mutant Q159D (SEQ ID NO:21) (protein, mutant aequorin) MVSKGEEVIKEFMRFKVRMEGSMNGHEFEIEGEGEGRPYEGTQTAKLKVTKGGPLPFAWDILSPQFMYGSKAYVKHPADIPDYKKLSFPEGFKWERVMNFEDGGLVTVTQDSSLQDGTLIYKVKMRGTNFPPDGPVMQKKTMGWEASTERLYPRDGVLKGEIHQALKLKDGGHYLVEFKTIYMAKKPVQLPGYYYVDTKLDITSHNEDYTIVEQYERSEGRHHLFLGHGTGSTGSGSSGTASSEDNNMAVIKEFMRFKVRMEGSMNGHEFEIEGEGEGRPYEGTQTAKLKVTKGGPLPFAWDILSPQFMYGSKAYVKHPADIPDYKKLSFPEGFKWERVMNFEDGGLVTVTQDSSLQDGTLIYKVKMRGTNFPPDGPVMQKKTMGWEASTERLYPRDGVLKGEIHQALKLKDGGHYLVEFKTIYMAKKPVQLPGYYYVDTKLDITSHNEDYTIVEQYERSEGRHHLFLSGFDNPRWIGRHKHMFNFLDVNHNGKISLDEMVYKASDIVINNLGATPEQAKRHKDAVEAFFGGAGMKYGVETDWPAYIEGWKKLATDELEKYAKNEPTLIRIWGDALFDIVDKDQNGAITLDEWKAYTKAAGIIQSSEDCEETFRVCDIDESGDLDVDEMTRQHLGFWYTMDPACEKLYGGAVP | 417 ± 16 nM | 23.9 | 14.9 |  | 9.1 | 13.2 | 

— patent US20180319855A1, “GENETICALLY MUTATED AEQUORIN-BASED BIOSENSORS WITH EXTRA SENSITIVITY TO CALCIUM AND IMPROVED BIOLUMINESCENCE INTENSITY” (CENTRE NATIONAL DE LA RECHERCHE SCIENTIFIQUE (CNRS), priority 2015, published 2018)
